Measurements: paper PMC3141052

Molecular target: P domain protein of norovirus VA207 (GII.9), amino acid 222-537 (norovirus VA207 (GII.9))
Assay: crystal structure; native P protein (P2(1)2(1)2) and its complexes with Le^y or SLe^x tetrasaccharide (P2(1)2(1)2(1)); hanging drop, PEG 3350, 50 mM magnesium formate

P domain protein of norovirus VA207 (GII.9), amino acid 222-537 (domain or fragment)
stoichiometry N: 2
